Measured values from paper doi:10.1101/2023.05.25.542299.

Assays:
[1] = target: FITC-labeled 45-mer peptide derived from the C-terminal region of IKKβ; experiment: fluorescence polarisation; fluorescence anisotropy binding assay with the FITC-labeled IKKβ 45-mer peptide and NEMO proteins; conditions not told (refs 13, 23)
[2] = target: 45-mer peptide of IKKβ (as used in the CD experiments); experiment: circular dichroism (spectra and thermal denaturation with and without ligand); 10 µM NEMO protein with or without equimolar IKKβ 45-mer peptide, incubated 1 h at room temperature; 20 mM sodium phosphate, 500 mM NaCl, pH 7.4; spectra at 25 °C, melt 10 to 70 °C at 222 nm

Chain of full-length WT NEMO (aa 1–419), bacterially expressed (Q9Y6K9 whole entry, the tested form may be a part): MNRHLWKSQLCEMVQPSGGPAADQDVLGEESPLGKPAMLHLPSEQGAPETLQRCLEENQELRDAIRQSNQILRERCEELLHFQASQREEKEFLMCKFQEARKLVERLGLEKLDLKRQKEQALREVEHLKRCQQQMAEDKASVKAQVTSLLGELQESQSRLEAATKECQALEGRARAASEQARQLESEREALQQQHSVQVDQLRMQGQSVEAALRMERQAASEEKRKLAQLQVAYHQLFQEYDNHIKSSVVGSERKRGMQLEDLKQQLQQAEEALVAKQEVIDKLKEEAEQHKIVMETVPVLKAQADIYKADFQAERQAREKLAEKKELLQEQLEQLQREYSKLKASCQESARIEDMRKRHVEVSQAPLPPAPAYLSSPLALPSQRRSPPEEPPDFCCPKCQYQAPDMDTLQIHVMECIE

Substance	Kd [1] [nM]	increase in Tm with equimolar peptide [2] [°C]
NEMO 1–419 OPTN-IVD, bacterially expressed (from UniProt Q9Y6K9 1-419) (natural protein)	33	5
full-length WT NEMO (aa 1–419), bacterially expressed (from UniProt Q9Y6K9 1-419) (natural protein)	4.7	3
